This note sets out measurements from patent US20110183342A1.

The target in the test is HLA-B1501 (purified MHC class I molecule) (human). The test can be described thus: competition with a radiolabeled probe peptide for purified MHC class I.

B1: Mtb8.4 5-15 peptide … (peptide)
peptide: AVINTTCNYGQ
modifications: not checked
Usually IC50 stands for the point on the concentration scale where inhibition reaches its midpoint. In turn, B1 came in with an IC50 of 10 nM.
